Source: patent publication US20160222105A1 (MacroGenics, published 2016)

What was measured:
[1] = biological target: T1, gpA33 on human cancer cells (human, UniProt Q99795 22-319); assay: cell-based or functional assay
T1 sequence (looked up): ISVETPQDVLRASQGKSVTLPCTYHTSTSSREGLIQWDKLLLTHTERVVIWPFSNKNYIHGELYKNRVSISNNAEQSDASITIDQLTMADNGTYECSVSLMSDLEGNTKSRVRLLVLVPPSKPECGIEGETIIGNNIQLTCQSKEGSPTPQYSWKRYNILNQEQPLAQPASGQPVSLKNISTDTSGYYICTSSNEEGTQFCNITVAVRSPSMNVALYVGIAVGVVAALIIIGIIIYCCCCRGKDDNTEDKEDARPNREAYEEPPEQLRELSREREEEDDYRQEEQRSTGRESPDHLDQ

soluble CD3 fragment = biological target: T2, soluble CD3 fragment (Homo sapiens (Human), UniProt P07766 23-127; P04234 22-101); assay: sandwich plate assay titled 'shCD3 capture/gpA33 detection': soluble CD3 immobilized, diabody titrated, bound diabody detected with gpA33; the signal needs binding to both CD3 and gpA33
T2 construct: copies: 1 + 1
Method: The detection of binding was assessed by the capacity of immobilized antibodies to additionally bind gpA33.

human gpA33 = biological target: T3, human gpA33 (human, UniProt Q99795 22-235, limits assumed); assay: simultaneous-binding assay; group statement
T3 construct: There it is printed only as gpA33; also called A33 antigen
T3 sequence (looked up): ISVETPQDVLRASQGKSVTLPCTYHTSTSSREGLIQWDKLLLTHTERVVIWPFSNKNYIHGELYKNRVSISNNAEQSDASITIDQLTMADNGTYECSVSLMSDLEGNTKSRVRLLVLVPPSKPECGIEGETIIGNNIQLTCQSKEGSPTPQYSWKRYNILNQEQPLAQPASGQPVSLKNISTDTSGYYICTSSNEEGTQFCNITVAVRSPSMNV

T2 sequence (P07766 other isoform, or with tags, fused parts or gaps limits assumed): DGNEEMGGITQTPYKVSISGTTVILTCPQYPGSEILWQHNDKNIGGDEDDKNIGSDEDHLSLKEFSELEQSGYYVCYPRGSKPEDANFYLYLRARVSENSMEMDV

B1: gpA33 × CD3 bi-specific monovalent diabody (DART-1) (bispecific antibody)
chain 1: QAVVTQEPSLTVSPGGTVTLTCRSSTGAVTTSNYANWVQQKPGQAPRGLIGGTNKRAPWTPARFSGSLLGGKAALTITGAQAEDEADYYCALWYSNLWVFGGGTKLTVLGGGGSGGGGQVQLQQSGPELVKPGASVKISCKASGYTFSGSWMNWVKQRPGQGLEWIGRIYPGDGETNYNGKFKDKATLTADKSSTTAYMELSSLTSVDSAVYFCARIYGNNVYFDVWGAGTTVTVSSGGCGGGEVAALEKEVAALEKEVAALEKEVAALEK
chain 2: QIVLTQSPAIMSASPGERVTMTCSARSSISFMYWYQQKPGSSPRLLIYDTSNLASGVPVRFSGSGSGTSYSLTISRMEAEDAATYYCQQWSSYPLTFGSGTKLELKRGGGSGGGGEVQLVESGGGLVQPGGSLRLSCAASGFTFNTYAMNWVRQAPGKGLEWVARIRSKYNNYATYYADSVKDRFTISRDDSKNSLYLQMNSLKTEDTAVYYCVRHGNFGNSYVSWFAYWGQGTLVTVSSGGCGGGKVAALKEKVAALKEKVAALKEKVAALKE
notes: Disulfide-bonded heterodimer with murine anti-gpA33 variable domains; also called gpA33 × CD3 DART 1
- EC50 of redirected killing, ASPC-1 cells, E:T 10:1 [1]: 1.14 ng/mL
- EC50 of redirected killing, Colo205 cells, E:T 10:1 [1]: 0.585 ng/mL
- EC50 of redirected killing, Colon CSLC cells, human PBMC E:T 25:1 [1]: 0.901 ng/mL
- EC50 (read off the curve) (soluble CD3 fragment): ~200 ng/mL

B2: gpA33 × CD3 bi-specific monovalent diabody having an IgG Fc Domain version 2 (DART-2 w/Fc Version 2) (bispecific antibody)
chain 1: DKTHTCPPCPAPEAAGGPSVFLFPPKPKDTLMISRTPEVTCVVVDVSHEDPEVKFNWYVDGVEVHNAKTKPREEQYNSTYRVVSVLTVLHQDWLNGKEYKCKVSNKALPAPIEKTISKAKGQPREPQVYTLPPSREEMTKNQVSLWCLVKGFYPSDIAVEWESNGQPENNYKTTPPVLDSDGSFFLYSKLTVDKSRWQQGNVFSCSVMHEALHNHYTQKSLSLSPGKAPSSSPMEDIQLTQSPSFLSASVGDRVTITCSARSSISFMYWYQQKPGKAPKLLIYDTSNLASGVPSRFSGSGSGTEFTLTISSLEAEDAATYYCQQWSSYPLTFGQGTKLEIKGGGSGGGGEVQLVESGGGLVQPGGSLRLSCAASGFTFSTYAMNWVRQAPGKGLEWVGRIRSKYNNYATYYADSVKDRFTISRDDSKNSLYLQMNSLKTEDTAVYYCVRHGNFGNSYVSWFAYWGQGTLVTVSSGGCGGGKVAALKEKVAALKEKVAALKEKVAALKE
chain 2: QAVVTQEPSLTVSPGGTVTLTCRSSTGAVTTSNYANWVQQKPGQAPRGLIGGTNKRAPWTPARFSGSLLGGKAALTITGAQAEDEADYYCALWYSNLWVFGGGTKLTVLGGGGSGGGGQVQLVQSGAEVKKPGASVKVSCKASGYTFTGSWMNWVRQAPGQGLEWIGRIYPGDGETNYNGKFKDRVTITADKSTSTAYMELSSLRSEDTAVYYCARIYGNNVYFDVWGQGTTVTVSSGGCGGGEVAALEKEVAALEKEVAALEKEVAALEK
chain 3: not shown
- binding result (human gpA33): binds
